Measurements reported in publication PMC9352680, “A comprehensive thermodynamic model for RNA binding by the Saccharomyces cerevisiae Pumilio protein PUF4”.

What was measured:
[1] = biological target: T1, PUF4 RNA-binding domain (Pumilio homology domain) (Saccharomyces cerevisiae) (UniProt P25339); experiment: RNA-MaP; settings: RNA-MaP: 20 mM Na-HEPES pH 7.4, 0.1% Tween-20, 5% glycerol, 0.1 mg/mL BSA, 2 mM DTT, low salt 0.75 mM MgCl2 + 30 mM KOAc (model data; high salt 2 mM MgCl2 + …)
T1 sequence: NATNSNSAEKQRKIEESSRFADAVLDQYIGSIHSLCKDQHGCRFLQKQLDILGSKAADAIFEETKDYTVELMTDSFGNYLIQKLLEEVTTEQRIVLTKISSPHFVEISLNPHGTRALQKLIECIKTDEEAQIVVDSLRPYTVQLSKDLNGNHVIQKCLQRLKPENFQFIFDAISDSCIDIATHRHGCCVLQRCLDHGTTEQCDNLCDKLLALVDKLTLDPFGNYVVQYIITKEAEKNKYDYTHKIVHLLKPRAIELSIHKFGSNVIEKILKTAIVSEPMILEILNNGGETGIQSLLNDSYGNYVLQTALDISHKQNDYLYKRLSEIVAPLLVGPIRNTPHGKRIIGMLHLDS

PUF4 RNA-binding domain = biological target: T2, PUF4 RNA-binding domain (Saccharomyces cerevisiae, UniProt P25339 537-888); experiment: Mg; RNA-MaP; 20 mM Na-HEPES pH 7.4, 30 mM KOAc, 0.75 mM MgCl2, 0.1% Tween-20, 5% glycerol, 0.1 mg/mL BSA, 2 mM DTT; 25 C; 0.0125-409.6 nM protein; settings: tags: N-His6-TEV cleaved; C-SNAP kept, Cy3B-labelled; label: tethered on chip by stalled RNA polymerase
T2 sequence: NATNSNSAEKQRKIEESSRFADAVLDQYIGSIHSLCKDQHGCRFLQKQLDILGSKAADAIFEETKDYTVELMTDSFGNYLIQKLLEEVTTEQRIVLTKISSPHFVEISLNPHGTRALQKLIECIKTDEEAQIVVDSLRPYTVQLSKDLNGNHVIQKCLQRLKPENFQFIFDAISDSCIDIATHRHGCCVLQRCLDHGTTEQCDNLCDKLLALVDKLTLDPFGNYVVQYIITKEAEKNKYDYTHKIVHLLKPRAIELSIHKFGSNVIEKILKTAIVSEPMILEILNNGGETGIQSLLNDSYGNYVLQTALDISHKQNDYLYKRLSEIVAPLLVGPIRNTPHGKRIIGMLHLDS

[2] = biological target: T3, PUF4 RNA-binding domain (Pumilio homology domain) (Saccharomyces cerevisiae, UniProt P25339 537-888); experiment: RNA-MaP; ddG 3.166; RNA-MaP: 20 mM Na-HEPES pH 7.4, 0.1% Tween-20, 5% glycerol, 0.1 mg/mL BSA, 2 mM DTT, low salt 0.75 mM MgCl2 + 30 mM KOAc (model data; high salt 2 mM MgCl2 + 100 mM KOAc), 25 C; settings: protein: recombinant; tags: C-terminal SNAP tag, Cy3B-labeled; N-terminal His tag removed with TEV; label: array RNA; single-stranded
T3 sequence: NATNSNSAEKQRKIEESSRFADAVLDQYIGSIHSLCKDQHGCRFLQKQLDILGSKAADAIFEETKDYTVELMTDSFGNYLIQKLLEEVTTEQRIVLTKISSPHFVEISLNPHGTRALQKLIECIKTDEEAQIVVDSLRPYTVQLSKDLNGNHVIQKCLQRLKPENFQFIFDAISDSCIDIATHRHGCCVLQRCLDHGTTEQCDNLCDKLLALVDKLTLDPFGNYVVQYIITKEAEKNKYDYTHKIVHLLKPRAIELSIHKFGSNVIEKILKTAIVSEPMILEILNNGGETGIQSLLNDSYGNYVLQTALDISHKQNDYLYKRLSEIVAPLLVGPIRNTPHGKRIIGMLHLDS

UGUAUCGCAC in S1b scaffold
Kd [1]: > 2400 nM

UGUAUAUUAU in S1a scaffold
Kd [1]: 0.88 nM

B1: Ib_S3_P3E.1_K3.1_C3.1_H3.1_[A4C]_A3.1_F3.1_[A8T]_T3.1 (ssRNA)
RNA: ACAAACUGUCUAUUACAAAC
Kd (PUF4 RNA-binding domain): 116 nM

B2: Ib_S3_P4E.1_K4.1_C4.1_H4.1_[G2C]_A4.1_F4.1_[A9C]_T4.1 (ssRNA)
RNA: ACAAACUCUAUAUUCACAAAC
Kd (PUF4 RNA-binding domain): > 2300 nM

B3: Ib_S3_P4E.1_K4.1_C4.1_H4.1_[G2T]_A4.1_F4.1_[A9C]_T4.1 (ssRNA)
RNA: ACAAACUUUAUAUUCACAAAC
Kd (PUF4 RNA-binding domain): > 2300 nM

B4: Ib_S3_P3E.1_K3.1_C3.1_H3.1_[T3C]_[A4G]_A3.1_F3.1_T3.1 (ssRNA)
RNA: ACAAACUGCGUAUAACAAAC
Kd (PUF4 RNA-binding domain): > 2300 nM

B5: Ib_S3_P3E.1_K3.1_C3.1_H3.1_[T1G]_A3.1_[T5C]_F3.1_T3.1 (ssRNA)
RNA: ACAAACGGUACAUAACAAAC
Kd (PUF4 RNA-binding domain): > 2300 nM

B6: Ib_S3_P4E.1_K4.1_C4.1_H4.1_[T1G]_A4.1_F4.1_[T8A]_T4.1 (ssRNA)
RNA: ACAAACGGUAUAUAAACAAAC
Kd (PUF4 RNA-binding domain): 1980 nM

B7: Ib_S3_P4E.1_K4.1_C4.1_H4.1_[T1C]_A4.1_F4.1_[A9C]_T4.1 (ssRNA)
RNA: ACAAACCGUAUAUUCACAAAC
Kd (PUF4 RNA-binding domain): > 2300 nM

B8: Ib_S3_P3E.1_K3.1_C3.1_H3.1_[G2T]_A3.1_[A6T]_F3.1_T3.1 (ssRNA)
RNA: ACAAACUUUAUUUAACAAAC
Kd (PUF4 RNA-binding domain): > 2300 nM

B9: Ib_S3_P3E.1_K3.1_C3.1_H3.1_[T3C]_A3.1_F3.1_[A8T]_T3.1 (ssRNA)
RNA: ACAAACUGCAUAUUACAAAC
Kd (PUF4 RNA-binding domain): 98.9 nM

B10: Ib_S3_P4E.1_K4.1_C4.1_H4.1_[T1G]_A4.1_F4.1_[T8G]_T4.1 (ssRNA)
RNA: ACAAACGGUAUAUGAACAAAC
Kd (PUF4 RNA-binding domain): > 2300 nM

B11: Ib_S3_P3E.1_K3.1_C3.1_H3.1_[A4C]_A3.1_F3.1_[T7C]_T3.1 (ssRNA)
RNA: ACAAACUGUCUACAACAAAC
Kd (PUF4 RNA-binding domain): > 2300 nM

B12: Ib_S3_P3E.1_K3.1_C3.1_H3.1_[T3G]_A3.1_[T5G]_F3.1_T3.1 (ssRNA)
RNA: ACAAACUGGAGAUAACAAAC
Kd (PUF4 RNA-binding domain): > 2300 nM

B13: Ib_S3_P3E.1_K3.1_C3.1_H3.1_[T1G]_A3.1_[A6C]_F3.1_T3.1 (ssRNA)
RNA: ACAAACGGUAUCUAACAAAC
Kd (PUF4 RNA-binding domain): > 2300 nM

B14: S1a K3.1 G2A (ssRNA)
RNA: UCUCUUUAUAUAUAUCUCUU
Kd [2]: -8.45 ± 0.403 kcal/mol (dG=RTlnKd)

B15: Ib_S3_P3E.1_K3.1_C3.1_H3.1_[T1A]_A3.1_[T5G]_F3.1_T3.1 (ssRNA)
RNA: ACAAACAGUAGAUAACAAAC
Kd (PUF4 RNA-binding domain): > 2300 nM

B16: Ib_S3_P3E.1_K3.1_C3.1_H3.1_[A4C]_A3.1_[A6T]_F3.1_T3.1 (ssRNA)
RNA: ACAAACUGUCUUUAACAAAC
Kd (PUF4 RNA-binding domain): > 2300 nM

B17: Ib_S3_P3E.1_K3.1_C3.1_H3.1_[G2T]_A3.1_[T5G]_F3.1_T3.1 (ssRNA)
RNA: ACAAACUUUAGAUAACAAAC
Kd (PUF4 RNA-binding domain): > 2300 nM

B18: Ib_S3_P3E.1_K3.1_C3.1_H3.1_[T3A]_A3.1_[A6C]_F3.1_T3.1 (ssRNA)
RNA: ACAAACUGAAUCUAACAAAC
Kd (PUF4 RNA-binding domain): > 2300 nM

B19: Ia_S2_P5E.1_K5.1_C5.1_H5.1_[A4G]_A5.1_F5.1_T5.1 (ssRNA)
RNA: UUUGAUUAAUAUGAUAUCGUUCUUUCUUGUGUUAUUAUUCUUUCUCGAUAUCAUAUUAAUCUUU
Kd (PUF4 RNA-binding domain): 12.9 nM

B20: Ia_S2_P5E.1_K5.1_C5.1_H5.1_A5.1_[T5G]_F5.1_T5.1 (ssRNA)
RNA: UUUGAUUAAUAUGAUAUCGUUCUUUCUUGUAGUAUUAUUCUUUCUCGAUAUCAUAUUAAUCUUU
Kd (PUF4 RNA-binding domain): 6.34 nM

B21: Ia_S2_P5E.1_K5.1_C5.1_H5.1_A5.1_[T5C]_F5.1_T5.1 (ssRNA)
RNA: UUUGAUUAAUAUGAUAUCGUUCUUUCUUGUACUAUUAUUCUUUCUCGAUAUCAUAUUAAUCUUU
Kd (PUF4 RNA-binding domain): 1.48 nM

B22: Ia_S2_P5E.1_K5.1_C5.1_H5.1_[A4T]_A5.1_F5.1_T5.1 (ssRNA)
RNA: UUUGAUUAAUAUGAUAUCGUUCUUUCUUGUUUUAUUAUUCUUUCUCGAUAUCAUAUUAAUCUUU
Kd (PUF4 RNA-binding domain): 11.5 nM

B23: Ib_S3_P4E.1_K4.1_C4.1_H4.1_[T1A]_A4.1_F4.1_[T8C]_T4.1 (ssRNA)
RNA: ACAAACAGUAUAUCAACAAAC
Kd (PUF4 RNA-binding domain): > 2300 nM

B24: Ib_S3_P3E.1_K3.1_C3.1_H3.1_[G2C]_A3.1_[T5G]_F3.1_T3.1 (ssRNA)
RNA: ACAAACUCUAGAUAACAAAC
Kd (PUF4 RNA-binding domain): > 2300 nM

B25: Ib_S3_P3E.1_K3.1_C3.1_H3.1_[T1C]_[G2C]_A3.1_F3.1_T3.1 (ssRNA)
RNA: ACAAACCCUAUAUAACAAAC
Kd (PUF4 RNA-binding domain): > 2300 nM
